Test results reported in patent US20060051363A1, “Protein inducing cell death of helicobacter pylori” (JAPAN SCIENCE AND TECHNOLOGY AGENCY, priority 2002, published 2006).

What was measured:
[1] = target: T1, subunit 2 of the apoptosis-inducing protein from Helicobacter pylori (amino acids 380-567 of the protein … (Helicobacter pylori strain 26695)); assay: native PAGE under acid condition (single band), then 2D SDS-PAGE (two bands, about 40 kDa and 22 kDa)
T1 construct: Purified from the membrane fraction of H. pylori strain 26695; this follows from the lengths; also called about 22 kDa band
T1 chain: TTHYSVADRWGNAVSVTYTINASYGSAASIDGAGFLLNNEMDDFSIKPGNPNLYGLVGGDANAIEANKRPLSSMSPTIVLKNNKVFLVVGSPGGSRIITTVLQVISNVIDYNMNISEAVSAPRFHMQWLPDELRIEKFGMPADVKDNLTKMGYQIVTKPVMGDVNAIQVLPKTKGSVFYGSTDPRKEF

[2] = tested on: human gastric adenocarcinoma cell line AGS; assay: cytotoxic effect assayed using WST-1 kit in AGS cells; assay type: cell-based; settings: FIG. 7
Procedure: In this example, the apoptosis-inducing activity was measured as the cytotoxic activity in human gastric adenocarcinoma cell line AGS (ATCC CRL 1739) using Quick Cell Proliferation Assay Kit (Cat.BV-K301-10) (BioVision). The cell viability (surviving cell), from which an apoptosis-inducing activity is calculated, is based on the activity of intracellular mitochondrial dehydrogenase activity as a marker enzyme and is measured by the absorbance at 450 nm after 1 hr incubation at 37° C. with the substrate of the enzyme. The absorbance indicates the cell viability. The more cytotoxic, the less the absorbance is according to the mesurement.
(§1) In this example, the apoptosis-inducing activity of the protein purified in example 1 was examined in human gastric adenocarcinoma cell line AGS (ATCC CRL 1739), in human gastric carcinoma cell line KATO III (Human Science Research Resources Bank, Cat No. JCRB0611 (ATCC, HTB-103)) and in human uterine cervix cancer-derived HeLa cell (Human Science Research Resources Bank, Cat No. JCRB9004).
(§2) The cytotoxic effect was assayed using WST-1 kit (Roche Diagnotics).

[3] = tested on: human gastric carcinoma cell line KATO III; assay: cytotoxic effect assayed using WST-1 kit in KATO III cells; assay type: cell-based; settings: FIG. 8
Procedure: as §1, §2

[4] = tested on: human uterine cervix cancer-derived HeLa cell; assay: cytotoxic effect assayed using WST-1 kit in HeLa cells; assay type: cell-based; settings: FIG. 7
Procedure: as §1, §2

AGS cells = assay: induction of apoptosis in AGS cells (Hoechst 33342 nuclear staining, fluorescence microscopy); assay type: cell-based, human; settings: Hoechst 33342 staining, FIG. 9
Text: Also, the induction of apoptosis in AGS cells by the protein was examined: Trypsinized apoptotic and control cells were collected and stained with a fluorescent dye (Hoechst 33342), which stains cellular nuclei. Since the nuclei of apoptotic cells are highly condensed and fragmented, apoptotic cells are easily differentiated from control cells under fluorescence microscopy. Cells were put on a slide glass, the number of apoptotic cells and control cells were counted and the percentage of apoptotic cells in total cells was enumerated. At least total 500 cells were counted for each experiment.

B1: subunit 1 of the apoptosis-inducing protein from Helicobacter pylori (amino acids 27-379 of the protein encoded by the HP1118 gamma-glutamyl transferase gene) (enzyme)
chain: ASYPPIKNTKVGLALSSHPLASEIGQKVLEEGGNAIDAAVAIGFALAVVHPAAGNIGGGGFAVIHLANGENVALDFREKAPLKATKNMFLDKQGNVVPKLSEDGYLAAGVPGTVAGMEAMLKKYGTKKLSQLIDPAIKLAENGYAISQRQAETLKEARERFLKYSSSKKYFFKKGHLDYQEGDLFVQKDLAKTLNQIKTLGAKGFYQGQVAELIEKDMKKNGGIITKEDLASYNVKWRKPVVGSYRGYKIISMSPPSSGGTHLIQILNVMENADLSALGYGASKNIHIAAEAMRQAYADRSVYMGDADFVSVPVDKLINKAYAKKIFDTIQPDTVTPSSQIKPGMGQLHEGSN
notes: Purified from the membrane fraction of H. pylori strain 26695; this follows from the lengths; also called about 40 kDa band
[1]
  binding result: binds

B2: protein purified in example 1: Helicobacter pylori protein complex of two subunits (SEQ ID NO: 1 and 2; about 40 kDa and 22 kDa) encoded by the HP1118 gene (protein)
chain 1: B1 chain
chain 2: T1 chain
modifications: Helicobacter Pylori
notes: about 40 kDa and 22 kDa) encoded by the HP1118 gene
[2]
  cytotoxic activity: has the cytotoxic activity
[3]
  cytotoxic activity: has the cytotoxic activity
[4]
  cytotoxic activity: has the cytotoxic activity
AGS cells
  induction of apoptosis (percentage of apoptotic cells in total cells): mainly ascribed to apoptosis
